The chains are these.
B1: Mcm3 (natural protein)
chain: MEGSTGFDGDATTFFAPDAVFGDRVRRFQEFLDTFTSYRDSVRSIQVYNSNNAANYNDDQDDADERDLLGDDDGDDLEKEKKAASSTSLNILPHRIIISLDDLREFDRSFWSGILVEPAYFIPPAEKALTDLADSMDDVPHPNASAVSSRHPWKLSFKGSFGAHALSPRTLTAQHLNKLVSVEGIVTKTSLVRPKLIRSVHYAAKTGRFHYRDYTDATTTLTTRIPTPAIYPTEDTEGNKLTTEYGYSTFIDHQRITVQEMPEMAPAGQLPRSIDVILDDDLVDKTKPGDRVNVVGVFKSLGAGGMNQSNSNTLIGFKTLILGNTVYPLHARSTGVAARQMLTDFDIRNINKLSKKKDIFDILSQSLAPSIYGHDHIKKAILLMLMGGVEKNLENGSHLRGDINILMVGDPSTAKSQLLRFVLNTASLAIATTGRGSSGVGLTAAVTTDRETGERRLEAGAMVLADRGVVCIDEFDKMTDVDRVAIHEVMEQQTVTIAKAGIHTTLNARCSVIAAANPVFGQYDVNRDPHQNIALPDSLLSRFDLLFVVTDDINEIRDRSISEHVLRTHRYLPPGYLEGEPVRERLNLSLAVGEDADINPEEHSNSGAGVENEGEDDEDHVFEKFNPLLQAGAKLAKNKGNYNGTEIPKLVTIPFLRKYVQYAKERVIPQLTQEAINVIVKNYTDLRNDDNTKKSPITARTLETLIRLATAHAKVRLSKTVNKVDAKVAANLLRFALLGEDIGNDIDEEESEYEEALSKRSPQKSPKKRQRVRQPASNSGSPIKSTPRRSTASSVNATPSSARRILRFQDDEQNAGEDDNDIMSPLPADEEAELQRRLQLGLRVSPRRREHLHAPEEGSSGPLTEVGTPRLPNVSSAGQDDEQQQSVISFDNVEPGTISTGRLSLISGIIARLMQTEIFEEESYPVASLFERINEELPEEEKFSAQEYLAGLKIMSDRNNLMVADDKVWRV

Holding throughout (experiment): SEC + co-IP
Test [1] deals with Mcm6 (Saccharomyces cerevisiae, UniProt P53091 1-1017).
Test [2] has as its target T1, Mcm4 (Saccharomyces cerevisiae, UniProt P30665 1-933).
T1 sequence: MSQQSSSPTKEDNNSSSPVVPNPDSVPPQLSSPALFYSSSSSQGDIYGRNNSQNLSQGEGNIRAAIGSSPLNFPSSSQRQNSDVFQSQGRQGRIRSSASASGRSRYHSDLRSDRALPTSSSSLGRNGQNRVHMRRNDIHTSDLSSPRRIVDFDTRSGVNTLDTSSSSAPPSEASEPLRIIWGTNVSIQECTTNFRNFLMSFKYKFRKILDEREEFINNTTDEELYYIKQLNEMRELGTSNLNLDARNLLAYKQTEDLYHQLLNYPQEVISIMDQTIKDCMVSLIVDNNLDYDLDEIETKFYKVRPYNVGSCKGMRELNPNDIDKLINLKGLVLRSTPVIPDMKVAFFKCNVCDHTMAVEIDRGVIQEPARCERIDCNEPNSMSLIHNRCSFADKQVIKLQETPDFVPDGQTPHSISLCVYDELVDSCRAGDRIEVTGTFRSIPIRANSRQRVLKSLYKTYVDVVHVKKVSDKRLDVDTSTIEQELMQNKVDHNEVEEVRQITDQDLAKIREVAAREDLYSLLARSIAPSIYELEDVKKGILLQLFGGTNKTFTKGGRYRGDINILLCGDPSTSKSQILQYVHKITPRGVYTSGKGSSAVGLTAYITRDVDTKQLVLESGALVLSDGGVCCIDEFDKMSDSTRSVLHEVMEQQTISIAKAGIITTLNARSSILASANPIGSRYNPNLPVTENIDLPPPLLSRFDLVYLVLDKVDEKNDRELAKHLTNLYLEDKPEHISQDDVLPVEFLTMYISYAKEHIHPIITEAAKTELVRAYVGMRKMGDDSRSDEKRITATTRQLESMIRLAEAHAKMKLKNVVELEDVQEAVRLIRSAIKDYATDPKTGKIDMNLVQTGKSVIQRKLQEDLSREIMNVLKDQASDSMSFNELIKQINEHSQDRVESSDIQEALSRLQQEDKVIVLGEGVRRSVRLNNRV

Test [3] has as its target B1.
For test [4], the target named is T2, Mcm7 (Saccharomyces cerevisiae, UniProt P38132 1-845).
T2 sequence: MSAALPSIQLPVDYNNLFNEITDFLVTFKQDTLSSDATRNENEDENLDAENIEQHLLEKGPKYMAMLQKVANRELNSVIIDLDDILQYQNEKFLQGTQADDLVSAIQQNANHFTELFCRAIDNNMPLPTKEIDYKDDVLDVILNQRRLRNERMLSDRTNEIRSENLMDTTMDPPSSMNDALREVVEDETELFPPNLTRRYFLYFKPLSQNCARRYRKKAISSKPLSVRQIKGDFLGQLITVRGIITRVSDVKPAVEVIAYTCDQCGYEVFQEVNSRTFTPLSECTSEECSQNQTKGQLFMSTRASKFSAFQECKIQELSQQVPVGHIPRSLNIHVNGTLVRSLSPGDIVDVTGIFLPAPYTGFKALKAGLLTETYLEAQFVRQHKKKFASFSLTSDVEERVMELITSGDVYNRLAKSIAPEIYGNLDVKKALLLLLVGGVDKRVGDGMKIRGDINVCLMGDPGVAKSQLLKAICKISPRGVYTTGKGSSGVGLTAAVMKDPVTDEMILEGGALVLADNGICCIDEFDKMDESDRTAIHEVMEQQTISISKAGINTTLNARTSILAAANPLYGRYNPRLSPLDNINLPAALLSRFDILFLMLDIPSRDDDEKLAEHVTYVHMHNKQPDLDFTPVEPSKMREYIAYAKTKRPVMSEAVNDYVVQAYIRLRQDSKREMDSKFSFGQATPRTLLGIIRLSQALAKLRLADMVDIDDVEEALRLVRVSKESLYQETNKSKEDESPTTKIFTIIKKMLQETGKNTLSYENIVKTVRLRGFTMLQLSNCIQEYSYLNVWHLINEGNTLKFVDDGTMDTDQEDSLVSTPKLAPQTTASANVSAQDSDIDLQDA

Chain of Mcm6 (P53091 whole entry): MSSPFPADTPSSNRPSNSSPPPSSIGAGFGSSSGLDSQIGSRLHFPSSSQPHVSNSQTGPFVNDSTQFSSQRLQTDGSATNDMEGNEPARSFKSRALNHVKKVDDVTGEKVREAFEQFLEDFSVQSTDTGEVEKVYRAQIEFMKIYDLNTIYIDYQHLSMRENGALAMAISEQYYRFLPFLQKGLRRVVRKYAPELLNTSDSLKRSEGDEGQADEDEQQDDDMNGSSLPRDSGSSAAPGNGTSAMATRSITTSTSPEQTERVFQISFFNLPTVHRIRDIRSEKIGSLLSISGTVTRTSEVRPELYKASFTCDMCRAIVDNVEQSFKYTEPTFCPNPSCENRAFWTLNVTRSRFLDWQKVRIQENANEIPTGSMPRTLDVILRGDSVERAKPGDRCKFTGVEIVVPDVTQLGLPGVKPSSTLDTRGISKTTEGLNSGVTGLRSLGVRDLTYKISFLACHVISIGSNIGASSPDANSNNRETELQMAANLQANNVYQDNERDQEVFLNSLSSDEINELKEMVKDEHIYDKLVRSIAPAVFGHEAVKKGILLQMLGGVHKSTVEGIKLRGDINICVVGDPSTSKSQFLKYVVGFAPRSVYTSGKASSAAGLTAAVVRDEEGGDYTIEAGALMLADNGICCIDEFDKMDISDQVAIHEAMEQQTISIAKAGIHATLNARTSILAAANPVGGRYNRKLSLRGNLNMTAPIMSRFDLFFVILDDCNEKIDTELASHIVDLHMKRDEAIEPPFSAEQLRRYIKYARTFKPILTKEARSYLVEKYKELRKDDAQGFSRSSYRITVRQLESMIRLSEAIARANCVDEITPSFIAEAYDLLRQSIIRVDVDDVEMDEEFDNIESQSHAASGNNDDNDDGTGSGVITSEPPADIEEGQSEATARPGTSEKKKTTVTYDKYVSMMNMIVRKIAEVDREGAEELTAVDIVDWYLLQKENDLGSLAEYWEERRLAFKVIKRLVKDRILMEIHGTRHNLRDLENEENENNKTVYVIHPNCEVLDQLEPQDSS

In the case of B1, the binding result in test [1] is “binds”.

B2: Mcm2 (natural protein)
chain: MSDNRRRRREEDDSDSENELPPSSPQQHFRGGMNPVSSPIGSPDMINPEGDDNEVDDVPDIDEVEEQMNEVDLMDDNMYEDYAADHNRDRYDPDQVDDREQQELSLSERRRIDAQLNERDRLLRNVAYIDDEDEEQEGAAQLDEMGLPVQRRRRRRQYEDLENSDDDLLSDMDIDPLREELTLESLSNVKANSYSEWITQPNVSRTIARELKSFLLEYTDETGRSVYGARIRTLGEMNSESLEVNYRHLAESKAILALFLAKCPEEMLKIFDLVAMEATELHYPDYARIHSEIHVRISDFPTIYSLRELRESNLSSLVRVTGVVTRRTGVFPQLKYVKFNCLKCGSILGPFFQDSNEEIRISFCTNCKSKGPFRVNGEKTVYRNYQRVTLQEAPGTVPPGRLPRHREVILLADLVDVSKPGEEVEVTGIYKNNYDGNLNAKNGFPVFATIIEANSIKRREGNTANEGEEGLDVFSWTEEEEREFRKISRDRGIIDKIISSMAPSIYGHRDIKTAVACSLFGGVPKNVNGKHSIRGDINVLLLGDPGTAKSQILKYVEKTAHRAVFATGQGASAVGLTASVRKDPITKEWTLEGGALVLADKGVCLIDEFDKMNDQDRTSIHEAMEQQSISISKAGIVTTLQARCSIIAAANPNGGRYNSTLPLAQNVSLTEPILSRFDILCVVRDLVDEEADERLATFVVDSHVRSHPENDEDREGEELKNNGESAIEQGEDEINEQLNARQRRLQRQRKKEEEISPIPQELLMKYIHYARTKIYPKLHQMDMDKVSRVYADLRRESISTGSFPITVRHLESILRIAESFAKMRLSEFVSSYDLDRAIKVVVDSFVDAQKVSVRRQLRRSFAIYTLGH
Take B2: the binding result in test [2] and in test [3] was “binds” in each case.

B3: Mcm5 (natural protein)
chain: MSFDRPEIYSAPVLQGESPNDDDNTEIIKSFKNFILEFRLDSQFIYRDQLRNNILVKNYSLTVNMEHLIGYNEDIYKKLSDEPSDIIPLFETAITQVAKRISILSRAQSANNNDKDPENTSMDTDSLLLNSLPTFQLILNSNANQIPLRDLDSEHVSKIVRLSGIIISTSVLSSRATYLSIMCRNCRHTTSITINNFNSITGNTVSLPRSCLSTIESESSMANESNIGDESTKKNCGPDPYIIIHESSKFIDQQFLKLQEIPELVPVGEMPRNLTMTCDRYLTNKVIPGTRVTIVGIYSIYNSKNGAGSGRSGGGNGGSGVAIRTPYIKILGIQSDVETSSIWNSVTMFTEEEEEEFLQLSRNPKLYEILTNSIAPSIFGNEDIKKAIVCLLMGGSKKILPDGMRLRGDINVLLLGDPGTAKSQLLKFVEKVSPIAVYTSGKGSSAAGLTASVQRDPMTREFYLEGGAMVLADGGVVCIDEFDKMRDEDRVAIHEAMEQQTISIAKAGITTVLNSRTSVLAAANPIYGRYDDLKSPGDNIDFQTTILSRFDMIFIVKDDHNEERDISIANHVINIHTGNANAMQNQQEENGSEISIEKMKRYITYCRLKCAPRLSPQAAEKLSSNFVTIRKQLLINELESTERSSIPITIRQLEAIIRITESLAKLELSPIAQERHVDEAIRLFQASTMDAASQDPIGGLNQASGTSLSEIRRFEQELKRRLPIGWSTSYQTLRREFVDTHRFSQLALDKALYALEKHETIQLRHQGQNIYRSGV
Take B3: the binding result in test [1] and in test [4] was “binds” throughout.
